Earlier results as cited in patent US20100028328A1, “TOPICAL TREATMENT FOR DISEASES OF EYE SURFACE” (THERAKINE, LTD., priority 2006, published 2010).

B1: TNFR-I: a TNF antagonist; topical soluble tumor necrosis factor receptor type I (protein, UniProt P19438 30-211, looked up)
extracellular domain: LVPHLGDREKRDSVCPQGKYIHPQNNSICCTKCHKGTYLYNDCPGPGQDTDCRECESGSFTASENHLRHCLSCSKCRKEMGQVEISSCTVDRDTVCGCRKNQYRHYWSENLFQCFNCSLCLNGTVHLSCQEKQNTVCTCHAGFFLRENECVSCSNCKKSLECTKLCLPQIENVKGTEDSGTT
modifications: extracellular domain

Experiments:
[1] = system: Herpetic Stromal Keratitis (HSK), Herpes simplex virus infection of the cornea; settings: treatment of HSK
[2] = system: allogeneic corneal transplants; settings: topical treatment

Molecule | influx of cells of the innate and adaptive immune system into the cornea [1] | acceptance of allogeneic corneal transplants [2] | gene expression of chemokines associated with corneal graft rejection (RANTES, macrophage inflammatory protein-1beta) [2]
IL-1 ra: receptor antagonist to IL-1 | reduce the influx of cells of the innate and adaptive immune system into the cornea |  | 
B1 |  | promoted the acceptance of allogeneic corneal transplants | inhibited gene expression of 2 chemokines
